Results as given in patent US20160264649A1.

Columns and labels:
Assay in all cases: cell-based or functional assay
[1] = molecular target: HIV-1 Env of isolate MG RM-C-020 (HIV-1)
[2] = molecular target: HIV-1 Env of isolate NL43 (HIV-1)
[3] = molecular target: HIV-1 Env of isolate MGRM-Chronic-B-020 (HIV-1)
[4] = molecular target: HIV-1 Env of isolate 93TH305 (HIV-1)
[5] = molecular target: HIV-1 Env of isolate QH0692.42 (HIV-1)
[6] = molecular target: HIV-1 Env of isolate MGRM-Chronic-B-011 (HIV-1)
[7] = molecular target: HIV-1 Env of isolate PVO.4 (HIV-1)
[8] = molecular target: HIV-1 Env of isolate APV_6 (HIV-1)
[9] = molecular target: HIV-1 Env of isolate JRCSF (HIV-1) (UniProt P20871)
[10] = molecular target: HIV-1 Env of isolate MG RM-C-025 (HIV-1)
[11] = molecular target: HIV-1 Env of isolate APV_17 (HIV-1)
[12] = molecular target: HIV-1 Env of isolate TRO.11 (HIV-1)
[13] = molecular target: HIV-1 Env of isolate MGRM-Chronic-B-012 (HIV-1)
[14] = molecular target: HIV-1 Env of isolate MG RM-C-027 (HIV-1)
[15] = molecular target: HIV-1 Env of isolate 92 BR 020 (HIV-1)
[16] = molecular target: HIV-1 Env of isolate JRFL (HIV-1)
[17] = molecular target: HIV-1 Env of isolate MGRM-Chronic-B-018 (HIV-1)
[18] = molecular target: HIV-1 Env of isolate MG RM-C-026 (HIV-1)
[19] = molecular target: HIV-1 Env of isolate 97ZA012 (HIV-1)
[20] = molecular target: HIV-1 Env of isolate 6535.3 (HIV-1)
[21] = molecular target: HIV-1 Env of isolate SC422661.8 (HIV-1)
[22] = molecular target: HIV-1 Env of isolate THR0.18 (HIV-1)
[23] = molecular target: HIV-1 Env of isolate MGRM-Chronic-B-017 (HIV-1)
[24] = molecular target: HIV-1 Env of isolate MGRM-Chronic-B-004 (HIV-1)
[25] = molecular target: HIV-1 Env of isolate MGRM-Chronic-B-008 (HIV-1)
[26] = molecular target: HIV-1 Env of isolate MG RM-C-023 (HIV-1)
[27] = molecular target: HIV-1 Env of isolate MGRM-Chronic-B-003 (HIV-1)
[28] = molecular target: HIV-1 Env of isolate APV_13 (HIV-1)
[29] = molecular target: HIV-1 Env of isolate MG RM-C-022 (HIV-1)
[30] = molecular target: HIV-1 Env of isolate 93MW959 (HIV-1)
[31] = molecular target: HIV-1 Env of isolate VLGCB3 (HIV-1)
[32] = molecular target: HIV-1 Env of isolate MG RM-C-024 (HIV-1)
[33] = molecular target: HIV-1 Env of isolate SF162 (HIV-1) (UniProt P19550)
[34] = molecular target: HIV-1 Env of isolate MGRM-Chronic-B-001 (HIV-1)
[35] = molecular target: HIV-1 Env of isolate MGRM-Chronic-B-010 (HIV-1)
[36] = molecular target: HIV-1 Env of isolate 98IN022 (HIV-1)
[37] = molecular target: HIV-1 Env of isolate MGRM-Chronic-B-002 (HIV-1)
[38] = molecular target: HIV-1 Env of isolate MGRM-Chronic-B-024 (HIV-1)
[39] = molecular target: HIV-1 Env of isolate TRJ04551.58 (HIV-1)
[40] = molecular target: HIV-1 Env of isolate MGRM-Chronic-B-023 (HIV-1)
[41] = molecular target: HIV-1 Env of isolate MG RM-C-028 (HIV-1)
[42] = molecular target: HIV-1 Env of isolate CAAN.A2 (HIV-1)
[43] = molecular target: HIV-1 Env of isolate 93IN905 (HIV-1)

PGT-127 monoclonal antibody (5145_B14)
neutralization IC50 [1]: > 50 µg/mL
neutralization IC50 [2]: > 50 µg/mL
neutralization IC50 [3]: 0.05 µg/mL
neutralization IC50 [4]: 0.017 µg/mL
neutralization IC50 [5]: 0.129 µg/mL
neutralization IC50 [6]: 0.297 µg/mL
neutralization IC50 [7]: 0.164 µg/mL
neutralization IC50 [8]: 0.04 µg/mL
neutralization IC50 [9]: 0.018 µg/mL
neutralization IC50 [10]: > 50 µg/mL
neutralization IC50 [11]: 10.4 µg/mL
neutralization IC50 [12]: 0.079 µg/mL
neutralization IC50 [13]: 0.075 µg/mL
neutralization IC50 [14]: > 50 µg/mL
neutralization IC50 [15]: 0.059 µg/mL
neutralization IC50 [16]: 0.029 µg/mL
neutralization IC50 [17]: 1.9 µg/mL
neutralization IC50 [18]: 0.014 µg/mL
neutralization IC50 [19]: > 50 µg/mL
neutralization IC50 [20]: 0.02 µg/mL
neutralization IC50 [21]: 36.7 µg/mL
neutralization IC50 [22]: > 50 µg/mL
neutralization IC50 [23]: > 50 µg/mL
neutralization IC50 [24]: 0.018 µg/mL
neutralization IC50 [25]: 21.5 µg/mL
neutralization IC50 [26]: 1.08 µg/mL
neutralization IC50 [27]: 0.12 µg/mL
neutralization IC50 [28]: 0.026 µg/mL
neutralization IC50 [29]: 0.41 µg/mL
neutralization IC50 [30]: 6.95 µg/mL
neutralization IC50 [31]: 0.022 µg/mL
neutralization IC50 [32]: > 50 µg/mL
neutralization IC50 [33]: 0.019 µg/mL
neutralization IC50 [34]: > 50 µg/mL
neutralization IC50 [35]: 0.019 µg/mL
neutralization IC50 [36]: 19.2 µg/mL
neutralization IC50 [37]: 0.279 µg/mL
neutralization IC50 [38]: > 50 µg/mL
neutralization IC50 [39]: 0.063 µg/mL
neutralization IC50 [40]: > 50 µg/mL
neutralization IC50 [41]: 7.57 µg/mL
neutralization IC50 [42]: 0.371 µg/mL
neutralization IC50 [43]: 0.024 µg/mL
